The Immune Epitope Database (IEDB)

Key:
HLA-A*24:02 [1] = experiment: IEDB peptide-MHC binding, purified MHC/competitive/radioactivity; filed as Kd, often an IC50 or EC50 that approximates it; ≥ and ≤ were set here for values at or beyond the usual limits of such assays; conditions: source organism: Dengue virus 4 Philippines/H241/1956
HLA-B*57:01 [2] = experiment: as above
HLA-B*58:01 = experiment: as above
HLA-B*53:01 = experiment: as above
HLA-A*69:01 [3] = experiment: IEDB peptide-MHC binding, purified MHC/direct/fluorescence; filed as Kd, often an IC50 or EC50 that approximates it; ≥ and ≤ were set here for values at or beyond the usual limits of such assays
HLA-A*02:12 = experiment: as above
HLA-A*02:11 = experiment: as above
HLA-A*02:03 [4] = experiment: as above
HLA-A*02:19 = experiment: as above
HLA-A*02:17 = experiment: IEDB peptide-MHC binding, purified MHC/competitive/radioactivity; filed as Kd, often an IC50 or EC50 that approximates it; ≥ and ≤ were set here for values at or beyond the usual limits of such assays; conditions: source organism: Dengue virus 1 Singapore/S275/1990
HLA-A*02:03 [5] = experiment: as above; conditions: source organism: Dengue virus 1 Brazil/97-11/1997
HLA-A*02:01 [6] = experiment: IEDB peptide-MHC binding, purified MHC/competitive/fluorescence; ≥ and ≤ were set here for values at or beyond the usual limits of such assays; conditions: source organism: Vaccinia virus
HLA-B*15:01 [7] = experiment: as above
HLA-A*24:02 [8] = experiment: as above; conditions: source organism: Zaire ebolavirus
HLA-B*08:02 = experiment: IEDB peptide-MHC binding, purified MHC/direct/fluorescence; filed as Kd, often an IC50 or EC50 that approximates it; ≥ and ≤ were set here for values at or beyond the usual limits of such assays
HLA-B*15:01 [9] = experiment: as above; conditions: source organism: Campylobacter jejuni
HLA-B*83:01 = experiment: IEDB peptide-MHC binding, purified MHC/competitive/fluorescence; filed as Kd, often an IC50 or EC50 that approximates it; ≥ and ≤ were set here for values at or beyond the usual limits of such assays
HLA-B*15:42 = experiment: as above
HLA-B*45:06 = experiment: as above
HLA-B*18:01 [10] = experiment: IEDB peptide-MHC binding, purified MHC/direct/fluorescence; filed as Kd, often an IC50 or EC50 that approximates it; ≥ and ≤ were set here for values at or beyond the usual limits of such assays; conditions: source organism: Yellow fever virus 1899/81
HLA-A*31:01 = experiment: IEDB peptide-MHC binding, purified MHC/competitive/fluorescence; filed as Kd, often an IC50 or EC50 that approximates it; ≥ and ≤ were set here for values at or beyond the usual limits of such assays; conditions: source organism: Mopeia Lassa virus reassortant 29
HLA-A*11:01 [11] = experiment: IEDB peptide-MHC binding, purified MHC/direct/fluorescence; filed as Kd, often an IC50 or EC50 that approximates it; ≥ and ≤ were set here for values at or beyond the usual limits of such assays; conditions: source organism: Mammarenavirus lassaense
HLA-A*03:01 = experiment: as above
HLA-B*18:01 [12] = experiment: IEDB peptide-MHC binding, purified MHC/competitive/fluorescence; filed as Kd, often an IC50 or EC50 that approximates it; ≥ and ≤ were set here for values at or beyond the usual limits of such assays
HLA-B*57:01 [13] = experiment: as above
HLA-B*46:01 = experiment: as above
HLA-A*69:01 [14] = experiment: as above
HLA-A*26:01 = experiment: as above
HLA-B*39:01 = experiment: as above
HLA-B*15:17 = experiment: as above
HLA-B*27:03 = experiment: as above
HLA-B*51:01 = experiment: as above
HLA-A*24:03 = experiment: IEDB peptide-MHC binding, purified MHC/direct/fluorescence; filed as Kd, often an IC50 or EC50 that approximates it; ≥ and ≤ were set here for values at or beyond the usual limits of such assays
HLA-A*68:02 = experiment: as above; conditions: source organism: Araucaria virus
HLA-B*15:01 [15] = experiment: IEDB peptide-MHC binding, purified MHC/competitive/fluorescence; filed as Kd, often an IC50 or EC50 that approximates it; ≥ and ≤ were set here for values at or beyond the usual limits of such assays; conditions: source organism: Zaire ebolavirus
HLA-A*02:01 [16] = experiment: IEDB peptide-MHC binding, purified MHC/direct/fluorescence; filed as Kd, often an IC50 or EC50 that approximates it; ≥ and ≤ were set here for values at or beyond the usual limits of such assays
HLA-A*29:02 = experiment: as above; conditions: source organism: Zaire ebolavirus
HLA-A*01:01 = experiment: as above; conditions: source organism: Reston ebolavirus - Reston
HLA-B*08:01 = experiment: as above; conditions: source organism: Mycobacterium tuberculosis str. Haarlem
HLA-A*11:01 [17] = experiment: IEDB peptide-MHC binding, purified MHC/competitive/fluorescence; ≥ and ≤ were set here for values at or beyond the usual limits of such assays; conditions: source organism: Zaire ebolavirus
HLA-A*32:01 = experiment: IEDB peptide-MHC binding, purified MHC/competitive/radioactivity; filed as Kd, often an IC50 or EC50 that approximates it; ≥ and ≤ were set here for values at or beyond the usual limits of such assays; conditions: source organism: Dengue virus 3 Martinique/1243/1999
[18] = source organism: Dengue virus 4 Philippines/H241/1956
[19] = source organism: Dengue virus 2 Jamaica/1409/1983
[20] = source organism: Mycobacterium tuberculosis str. Haarlem
[21] = source organism: dengue virus type 3
[22] = source organism: Dengue virus 3 Singapore/8120/1995
[23] = source organism: Dengue virus 4 Dominica/814669/1981
[24] = source organism: Dengue virus 3 Martinique/1243/1999
[25] = source organism: Zaire ebolavirus
[26] = source organism: Yellow fever virus 1899/81
[27] = source organism: Mopeia Lassa virus reassortant 29
[28] = source organism: Hantavirus HPR/02-73
[29] = source organism: Araucaria virus

Sequence: VTMTLWYMW
- Kd (HLA-A*24:02 [1]): 31.7 nM
- Kd (HLA-B*57:01 [2]; [18]): 7.52 nM
- Kd (HLA-B*58:01; [18]): 1.59 nM
- Kd (HLA-B*53:01; [18]): 2540 nM

Sequence: MKITAEWLW
- Kd (HLA-B*57:01 [2]; [19]): 43.3 nM
- Kd (HLA-B*58:01; [19]): 5.43 nM
- Kd (HLA-B*53:01; [19]): 1090 nM

Sequence: ALFPIIWAL
- Kd (HLA-A*69:01 [3]; source organism: Mycobacterium tuberculosis): 536 nM
- Kd (HLA-A*02:12; [20]): 4 nM
- Kd (HLA-A*02:11; [20]): ≤ 1 nM
- Kd (HLA-A*02:03 [4]; [20]): 3 nM

Sequence: PSSVAARGYI
- Kd (HLA-B*57:01 [2]; [18]): 16400 nM
- Kd (HLA-B*58:01; [18]): 512 nM

Sequence: GSSIGQMFET
- Kd (HLA-B*57:01 [2]; [19]): 1080 nM
- Kd (HLA-B*58:01; [19]): 1510 nM

Sequence: TLYAVATTV
- Kd (HLA-A*02:19; [21]): 10 nM
- Kd (HLA-A*02:12; [21]): 5 nM
- Kd (HLA-A*02:11; [21]): ≤ 1 nM
- Kd (HLA-A*02:17): 1620 nM
- Kd (HLA-A*02:03 [5]): 12.8 nM

Sequence: PMMIQTRAA
- IC50 (HLA-A*02:01 [6]): 18200 nM
- IC50 (HLA-B*15:01 [7]; source organism: Vaccinia virus): ≥ 298000 nM

Sequence: HSSTWHYDDE
- Kd (HLA-B*57:01 [2]; [22]): 6580 nM
- Kd (HLA-B*58:01; [22]): 866 nM

Sequence: TSSQQKADW
- Kd (HLA-B*57:01 [2]; [19]): 29.1 nM
- Kd (HLA-B*58:01; [19]): 186 nM

Sequence: GTSLLFLNDM
- Kd (HLA-B*57:01 [2]; [23]): ≥ 22100 nM

Sequence: KTKLNDWDF
- Kd (HLA-B*57:01 [2]; [24]): 50.7 nM

Sequence: AFHKEGAFF
- IC50 (HLA-A*24:02 [8]): 19.9 nM
- IC50 (HLA-B*15:01 [7]; [25]): 1880 nM

Sequence: GSSIGKMFES
- Kd (HLA-B*57:01 [2]; [23]): 1830 nM
- Kd (HLA-B*58:01; [23]): 251 nM

Sequence: ILKERKQAL
- Kd (HLA-B*08:02; source organism: Listeria monocytogenes serotype 4b str. H7858): 1620 nM

Sequence: SLNLAKEAV
- Kd (HLA-A*69:01 [3]; source organism: Campylobacter jejuni): 4340 nM
- Kd (HLA-A*02:11; source organism: Campylobacter jejuni subsp. jejuni HB93-13): 3 nM
- Kd (HLA-B*15:01 [9]): ≥ 34000 nM

Sequence: VSAGESSIL
- IC50 (HLA-B*15:01 [7]; source organism: Vaccinia virus Copenhagen): ≥ 87400 nM

Sequence: HEVNGTWMI
- Kd (HLA-B*83:01; [26]): ≥ 5000 nM
- Kd (HLA-B*15:42; [26]): ≥ 5000 nM
- Kd (HLA-B*45:06; [26]): ≥ 5000 nM
- Kd (HLA-B*18:01 [10]): 9 nM

Sequence: RLKFSLSYK
- Kd (HLA-B*83:01; [27]): ≥ 5000 nM
- Kd (HLA-A*31:01): 7.17 nM
- Kd (HLA-B*15:42; [27]): ≥ 5000 nM
- Kd (HLA-B*45:06; [27]): ≥ 5000 nM
- Kd (HLA-A*11:01 [11]): 59.7 nM
- Kd (HLA-A*03:01; source organism: Mammarenavirus lassaense): 48.4 nM

Sequence: GFAIPIILK
- Kd (HLA-B*18:01 [12]; [28]): ≥ 20000 nM
- Kd (HLA-B*57:01 [13]; [28]): ≥ 20000 nM
- Kd (HLA-B*46:01; [28]): ≥ 20000 nM
- Kd (HLA-A*69:01 [14]; [28]): ≥ 20000 nM
- Kd (HLA-A*26:01; [28]): ≥ 20000 nM
- Kd (HLA-B*39:01; [28]): ≥ 20000 nM
- Kd (HLA-B*15:17; [28]): ≥ 20000 nM
- Kd (HLA-B*27:03; [28]): ≥ 20000 nM
- Kd (HLA-B*51:01; [28]): ≥ 20000 nM
- Kd (HLA-A*02:19; [29]): ≥ 20000 nM
- Kd (HLA-A*02:12; [29]): ≥ 20000 nM
- Kd (HLA-A*02:03 [4]; [29]): ≥ 20000 nM
- Kd (HLA-A*03:01; source organism: Juquitiba virus): 6000 nM
- Kd (HLA-A*24:03; [29]): ≥ 20000 nM
- Kd (HLA-A*68:02): ≥ 20000 nM

Sequence: VLSDLCNFL
- Kd (HLA-B*18:01 [12]; [25]): ≥ 20000 nM
- Kd (HLA-B*57:01 [13]; [25]): ≥ 20000 nM
- Kd (HLA-B*46:01; [25]): ≥ 20000 nM
- Kd (HLA-A*69:01 [14]; [25]): ≥ 20000 nM
- Kd (HLA-A*26:01; [25]): ≥ 20000 nM
- Kd (HLA-B*39:01; [25]): ≥ 20000 nM
- Kd (HLA-B*15:17; [25]): ≥ 20000 nM
- Kd (HLA-B*27:03; [25]): ≥ 20000 nM
- Kd (HLA-B*51:01; [25]): ≥ 20000 nM
- Kd (HLA-B*15:01 [15]): ≥ 20000 nM
- Kd (HLA-A*02:01 [16]; source organism: Ebola virus - Gabon (1994-1997)): 5 nM
- Kd (HLA-A*29:02): ≥ 20000 nM
- Kd (HLA-A*03:01; [25]): ≥ 20000 nM
- Kd (HLA-A*24:03; [25]): ≥ 20000 nM

Sequence: MVAKYDLLV
- Kd (HLA-B*18:01 [12]; [25]): ≥ 20000 nM
- Kd (HLA-B*57:01 [13]; [25]): ≥ 20000 nM
- Kd (HLA-B*46:01; [25]): ≥ 20000 nM
- Kd (HLA-A*26:01; [25]): ≥ 20000 nM
- Kd (HLA-B*39:01; [25]): ≥ 20000 nM
- Kd (HLA-B*27:03; [25]): ≥ 20000 nM
- Kd (HLA-B*51:01; [25]): ≥ 20000 nM
- Kd (HLA-A*01:01): ≥ 20000 nM
- Kd (HLA-A*02:12; [25]): ≥ 20000 nM
- Kd (HLA-A*02:01 [16]; source organism: Reston ebolavirus - Reston): 14.1 nM
- Kd (HLA-A*03:01; [25]): ≥ 20000 nM

Sequence: TLRRRFAVA
- Kd (HLA-B*08:01): 12 nM
- Kd (HLA-B*08:02; [20]): ≥ 20000 nM

Sequence: SQKGQHIEG
- IC50 (HLA-A*11:01 [17]): ≥ 186000 nM
- IC50 (HLA-B*15:01 [7]; [25]): 46500 nM

Sequence: ATGPITTLW
- Kd (HLA-A*32:01): 221 nM
- Kd (HLA-B*57:01 [2]; [24]): 12.1 nM
- Kd (HLA-B*58:01; [24]): 4.89 nM
